Reference: US20220177560A1 (Janssen / Centocor, published 2022)
One block for each binder: values may come before it.

Experiments:
human Aβ 1-28 peptide [1] = target: human Aβ 1-28 peptide (human); assay: SPR; no binding up to the maximum 1.2 µM tested
Scrambled 3pE-28 [2] = target: T1, Scrambled 3pE-28 (human); assay: SPR; no binding up to the maximum 1.2 µM tested
T1 construct: also called scrambled Aβ 3pE-28; Aβ 3pE-28 peptide with amino acids 3-9 scrambled
T1 peptide: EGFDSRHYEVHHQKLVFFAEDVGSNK

human Aβ 1-28 peptide [3] = target: human Aβ 1-28 peptide (human); assay: SPR; KD limit divided by the KD for human 3pE Aβ
Scrambled 3pE-28 [4] = target: T1, Scrambled 3pE-28; assay: SPR; KD limit divided by the KD for human 3pE Aβ
mouse Aβ 3pE-28 peptide [5] = target: T2, mouse Aβ 3pE-28 peptide (mouse, pyroglutamate (pE) at the N-terminus, residue 3 of Aβ); assay: SPR, antibody captured, peptide injected, 1:1 fit
T2 construct: also called rodent Aβ3pE-28
T2 peptide: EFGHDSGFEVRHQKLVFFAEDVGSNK

HU-3pE-beta-Amyloid = target: T3, HU-3pE-beta-Amyloid (human); assay: SPR (per Example 5); antigen peptide not given
T3 construct: also called the peptide

mouse Aβ 3pE-28 peptide [6] = target: T2, mouse Aβ 3pE-28 peptide; assay: SPR; KD for this peptide divided by the KD for human 3pE Aβ
human Aβ 3pE-28 peptide = human Aβ 3pE-28 peptide (human, pyroglutamate (pE) at the N-terminus, residue 3 of Aβ); assay: SPR, antibody captured on anti-human or anti-mouse Ig chip, peptide injected, 1:1 fit; N=9
Sequence of human Aβ 3pE-28 peptide (human, pyroglutamate (pE) at the N-terminus, residue 3 of Aβ) (peptide, as listed by the source): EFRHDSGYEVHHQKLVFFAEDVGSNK

Sequence of human Aβ 1-28 peptide (human) (peptide, as listed by the source): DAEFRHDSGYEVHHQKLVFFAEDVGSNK

B3: BAMB630 (antibody, human IgG1, kappa, V domains shown)
VH: QVQLVQSGAEVKKPGASVKVSCKASGHVFTSYDMYWVKQAPGQSLEWIGYIDSDNGDTSYNQKFKGKVTLTVDTSTSTVYMELSSLRSEDTAVYYCAYYRYAMDYWGQGTLVTVSS
VL: DVVMTQSPLSLPVTLGQPASISCKSSQSLLDSRAKTYLTWLLQRPGQSPRRLIYLVSKLDSGVPDRFSGSGSGTDFTLKISRVEAEDVGVYYCWQGTHFPYTFGGGTKLEIKR
notes: HFA variant of BAMB31, human IgG1
Kd (HU-3pE-beta-Amyloid): 0.0383 nM

B6: BAMB611 (antibody, human IgG1, kappa, V domains shown)
VH: QVQLVQSGAEVKKPGASVKVSCKASGHVFTSYDMYWVRQAPGQGLEWMGYIDSDNGDTSYNQKFKGRVTMTVDTSTSTVYMELSSLRSEDTAVYYCAYYRYAMDYWGQGTLVTVSS
VL: DVVMTQSPLSLPVTLGQPASISCKSSQSLLDSNGKTYLTWFQQRPGQSPRRLIYLVSKLDSGVPDRFSGSGSGTDFTLKISRVEAEDVGVYYCWQGTHFPYTFGGGTKLEIKR
notes: Human framework adapted (HFA) variant of BAMB31, human IgG1
Kd (HU-3pE-beta-Amyloid): 1.52 nM

Stronger by Kd (HU-3pE-beta-Amyloid), values ahead:

Kd (human Aβ 1-28 peptide [1]): > 1200 nM
Kd (Scrambled 3pE-28 [2]): > 1200 nM
Fold Selectivity (human Aβ 1-28 peptide [3]): > 95000 fold
Fold Selectivity (Scrambled 3pE-28 [4]): > 95000 fold
Kd (mouse Aβ 3pE-28 peptide [5]): 39.6 nM
koff (mouse Aβ 3pE-28 peptide [5]): 0.000404 s⁻¹
kon (mouse Aβ 3pE-28 peptide [5]): 10200 M⁻¹ s⁻¹
Kd (HU-3pE-beta-Amyloid): 0.0139 nM
Fold Selectivity (mouse Aβ 3pE-28 peptide [6]): 3140 fold
Kd (human Aβ 3pE-28 peptide): 0.0126 nM
koff (human Aβ 3pE-28 peptide): 4.42e-05 s⁻¹
kon (human Aβ 3pE-28 peptide): 3.53e+06 M⁻¹ s⁻¹
B1: BAMB246 (human IgG1 chimera) (antibody)
heavy: not shown
light: DVVMTQTPLTLSVTIGQPASISCKSSQSLLDSNGKTYLTWLLQRPGQSPKRLIYLVSKLDSGVPDRFTGSGAGTDFTLKIIRVEAEDLGVYYCWQGTHFPYTFGGGTKLEIKRTVAAPSVFIFPPSDEQLKSGTASVVCLLNNFYPREAKVQWKVDNALQSGNSQESVTEQDSKDSTYSLSSTLTLSKADYEKHKVYACEVTHQGLSSPVTKSFNRGEC
notes: Mouse variable regions on a human IgG1 constant region; also called human chimeric parent; huIgG1 chimera

Kd (HU-3pE-beta-Amyloid): 0.0183 nM
B2: BAMB623 (antibody, human IgG1, kappa, V domains shown)
VH: QVQLVQSGAEVKKPGASVKVSCKASGHVFTSYDMYWVRQAPGQSLEWIGYIDSDNGDTSYNQKFKGKATMTVDTSTSTVYMELSSLRSEDTAVYYCAYYRYAMDYWGQGTLVTVSS
VL: DVVMTQSPLSLPVTLGQPASISCKSSQSLLDSRAKTYLTWLQQRPGQSPRRLIYLVSKLDSGVPDRFSGSGSGTDFTLKISRVEAEDVGVYYCWQGTHFPYTFGGGTKLEIKR
notes: as for B3

Kd (HU-3pE-beta-Amyloid): 0.0117 nM
B4: BAMB612 (antibody, human IgG1, kappa, V domains shown)
VH: QVQLVQSGAEVKKPGASVKVSCKASGHVFTSYDMYWVRQSPGQGLEWIGYIDSDNGDTSYNQKFKGRVTLTVDTSTSTVYMELSSLRSEDTAVYYCAYYRYAMDYWGQGTLVTVSS
VL: DVVMTQSPLSLPVTLGQPASISCKSSQSLLDSRAKTYLTWLQQRPGQSPRRLIYLVSKLDSGVPDRFSGSGSGTDFTLKISRVEAEDVGVYYCWQGTHFPYTFGGGTKLEIKR
notes: as for B3

Kd (HU-3pE-beta-Amyloid): 0.016 nM
B5: BAMB614 (antibody, human IgG1, kappa, V domains shown)
VH: QVQLVQSGAEVKKPGASVKVSCKASGHVFTSYDMYWVRQAPGQGLEWIGYIDSDNGDTSYNQKFKGRVTLTVDTSTSTVYMELSSLRSEDTAVYYCAYYRYAMDYWGQGTLVTVSS
VL: DVVMTQSPLSLPVTLGQPASISCKSSQSLLDSRAKTYLTWLQQRPGQSPRRLIYLVSKLDSGVPDRFSGSGSGTDFTLKISRVEAEDVGVYYCWQGTHFPYTFGGGTKLEIKR
notes: as for B3
